B1: anti-IL-6 antibody, heavy chain T58K, light chain WT (antibody, IgG1, V domains shown)
VH: EVQLVESGGGLVQPGGSLRLSCAASGFTFSPFAMSWVRQAPGKGLEWVAKISPGGSWKYYSDTVTGRFTFSLDTSKSTAYLQMNSLRAEDTAVYYCARQLWGYYALDIWGQGTLVTVSS
VL: DIQLTQSPSSLSASVGDRVTITCSASISVSYMYWYQQKPGKAPKLLIYDMSNLASGVPSRFSGSGSGTDFTLTISSLQPEDFATYYCMQWSGYPYTFGQGTKVEIK
notes: Full IgG1 tested; V domains derived as in m2
B2: anti-IL-6 antibody, heavy chain WT, light chain S26H (antibody, IgG1, V domains shown)
VH: EVQLVESGGGLVQPGGSLRLSCAASGFTFSPFAMSWVRQAPGKGLEWVAKISPGGSWTYYSDTVTGRFTFSLDTSKSTAYLQMNSLRAEDTAVYYCARQLWGYYALDIWGQGTLVTVSS
VL: DIQLTQSPSSLSASVGDRVTITCSAHISVSYMYWYQQKPGKAPKLLIYDMSNLASGVPSRFSGSGSGTDFTLTISSLQPEDFATYYCMQWSGYPYTFGQGTKVEIK
notes: as for B1
B3: anti-IL-6 antibody, heavy chain T63K, light chain WT (antibody, IgG1, V domains shown)
VH: EVQLVESGGGLVQPGGSLRLSCAASGFTFSPFAMSWVRQAPGKGLEWVAKISPGGSWTYYSDKVTGRFTFSLDTSKSTAYLQMNSLRAEDTAVYYCARQLWGYYALDIWGQGTLVTVSS
VL: DIQLTQSPSSLSASVGDRVTITCSASISVSYMYWYQQKPGKAPKLLIYDMSNLASGVPSRFSGSGSGTDFTLTISSLQPEDFATYYCMQWSGYPYTFGQGTKVEIK
notes: as for B1
B4: anti-IL-6 antibody, heavy chain V64A, light chain WT (antibody, IgG1, V domains shown)
VH: EVQLVESGGGLVQPGGSLRLSCAASGFTFSPFAMSWVRQAPGKGLEWVAKISPGGSWTYYSDTATGRFTFSLDTSKSTAYLQMNSLRAEDTAVYYCARQLWGYYALDIWGQGTLVTVSS
VL: DIQLTQSPSSLSASVGDRVTITCSASISVSYMYWYQQKPGKAPKLLIYDMSNLASGVPSRFSGSGSGTDFTLTISSLQPEDFATYYCMQWSGYPYTFGQGTKVEIK
notes: as for B1
B5: anti-IL-6 antibody, heavy chain WT, light chain S26G (antibody, IgG1, V domains shown)
VH: EVQLVESGGGLVQPGGSLRLSCAASGFTFSPFAMSWVRQAPGKGLEWVAKISPGGSWTYYSDTVTGRFTFSLDTSKSTAYLQMNSLRAEDTAVYYCARQLWGYYALDIWGQGTLVTVSS
VL: DIQLTQSPSSLSASVGDRVTITCSAGISVSYMYWYQQKPGKAPKLLIYDMSNLASGVPSRFSGSGSGTDFTLTISSLQPEDFATYYCMQWSGYPYTFGQGTKVEIK
notes: as for B1
B6: anti-IL-6 antibody, heavy chain T65G, light chain WT (antibody, IgG1, V domains shown)
VH: EVQLVESGGGLVQPGGSLRLSCAASGFTFSPFAMSWVRQAPGKGLEWVAKISPGGSWTYYSDTVGGRFTFSLDTSKSTAYLQMNSLRAEDTAVYYCARQLWGYYALDIWGQGTLVTVSS
VL: DIQLTQSPSSLSASVGDRVTITCSASISVSYMYWYQQKPGKAPKLLIYDMSNLASGVPSRFSGSGSGTDFTLTISSLQPEDFATYYCMQWSGYPYTFGQGTKVEIK
notes: as for B1
B7: anti-IL-6 antibody, heavy chain T58R, light chain WT (antibody, IgG1, V domains shown)
VH: EVQLVESGGGLVQPGGSLRLSCAASGFTFSPFAMSWVRQAPGKGLEWVAKISPGGSWRYYSDTVTGRFTFSLDTSKSTAYLQMNSLRAEDTAVYYCARQLWGYYALDIWGQGTLVTVSS
VL: DIQLTQSPSSLSASVGDRVTITCSASISVSYMYWYQQKPGKAPKLLIYDMSNLASGVPSRFSGSGSGTDFTLTISSLQPEDFATYYCMQWSGYPYTFGQGTKVEIK
notes: as for B1
B8: anti-IL-6 antibody, heavy chain WT, light chain S24K (antibody, IgG1, V domains shown)
VH: EVQLVESGGGLVQPGGSLRLSCAASGFTFSPFAMSWVRQAPGKGLEWVAKISPGGSWTYYSDTVTGRFTFSLDTSKSTAYLQMNSLRAEDTAVYYCARQLWGYYALDIWGQGTLVTVSS
VL: DIQLTQSPSSLSASVGDRVTITCKASISVSYMYWYQQKPGKAPKLLIYDMSNLASGVPSRFSGSGSGTDFTLTISSLQPEDFATYYCMQWSGYPYTFGQGTKVEIK
notes: as for B1
B9: anti-IL-6 antibody, heavy chain T58V, light chain WT (antibody, IgG1, V domains shown)
VH: EVQLVESGGGLVQPGGSLRLSCAASGFTFSPFAMSWVRQAPGKGLEWVAKISPGGSWVYYSDTVTGRFTFSLDTSKSTAYLQMNSLRAEDTAVYYCARQLWGYYALDIWGQGTLVTVSS
VL: DIQLTQSPSSLSASVGDRVTITCSASISVSYMYWYQQKPGKAPKLLIYDMSNLASGVPSRFSGSGSGTDFTLTISSLQPEDFATYYCMQWSGYPYTFGQGTKVEIK
notes: as for B1
B10: anti-IL-6 antibody, heavy chain V48I, light chain WT (antibody, IgG1, V domains shown)
VH: EVQLVESGGGLVQPGGSLRLSCAASGFTFSPFAMSWVRQAPGKGLEWIAKISPGGSWTYYSDTVTGRFTFSLDTSKSTAYLQMNSLRAEDTAVYYCARQLWGYYALDIWGQGTLVTVSS
VL: DIQLTQSPSSLSASVGDRVTITCSASISVSYMYWYQQKPGKAPKLLIYDMSNLASGVPSRFSGSGSGTDFTLTISSLQPEDFATYYCMQWSGYPYTFGQGTKVEIK
notes: as for B1
B11: anti-IL-6 antibody, heavy chain WT, light chain S24P (antibody, IgG1, V domains shown)
VH: EVQLVESGGGLVQPGGSLRLSCAASGFTFSPFAMSWVRQAPGKGLEWVAKISPGGSWTYYSDTVTGRFTFSLDTSKSTAYLQMNSLRAEDTAVYYCARQLWGYYALDIWGQGTLVTVSS
VL: DIQLTQSPSSLSASVGDRVTITCPASISVSYMYWYQQKPGKAPKLLIYDMSNLASGVPSRFSGSGSGTDFTLTISSLQPEDFATYYCMQWSGYPYTFGQGTKVEIK
notes: as for B1
B12: anti-IL-6 antibody, heavy chain T63G, light chain WT (antibody, IgG1, V domains shown)
VH: EVQLVESGGGLVQPGGSLRLSCAASGFTFSPFAMSWVRQAPGKGLEWVAKISPGGSWTYYSDGVTGRFTFSLDTSKSTAYLQMNSLRAEDTAVYYCARQLWGYYALDIWGQGTLVTVSS
VL: DIQLTQSPSSLSASVGDRVTITCSASISVSYMYWYQQKPGKAPKLLIYDMSNLASGVPSRFSGSGSGTDFTLTISSLQPEDFATYYCMQWSGYPYTFGQGTKVEIK
notes: as for B1
B13: anti-IL-6 antibody, heavy chain T63E, light chain WT (antibody, IgG1, V domains shown)
VH: EVQLVESGGGLVQPGGSLRLSCAASGFTFSPFAMSWVRQAPGKGLEWVAKISPGGSWTYYSDEVTGRFTFSLDTSKSTAYLQMNSLRAEDTAVYYCARQLWGYYALDIWGQGTLVTVSS
VL: DIQLTQSPSSLSASVGDRVTITCSASISVSYMYWYQQKPGKAPKLLIYDMSNLASGVPSRFSGSGSGTDFTLTISSLQPEDFATYYCMQWSGYPYTFGQGTKVEIK
notes: as for B1
B14: anti-IL-6 antibody, heavy chain T65Y, light chain WT (antibody, IgG1, V domains shown)
VH: EVQLVESGGGLVQPGGSLRLSCAASGFTFSPFAMSWVRQAPGKGLEWVAKISPGGSWTYYSDTVYGRFTFSLDTSKSTAYLQMNSLRAEDTAVYYCARQLWGYYALDIWGQGTLVTVSS
VL: DIQLTQSPSSLSASVGDRVTITCSASISVSYMYWYQQKPGKAPKLLIYDMSNLASGVPSRFSGSGSGTDFTLTISSLQPEDFATYYCMQWSGYPYTFGQGTKVEIK
notes: as for B1
B15: anti-IL-6 antibody, heavy chain T63Q, light chain WT (antibody, IgG1, V domains shown)
VH: EVQLVESGGGLVQPGGSLRLSCAASGFTFSPFAMSWVRQAPGKGLEWVAKISPGGSWTYYSDQVTGRFTFSLDTSKSTAYLQMNSLRAEDTAVYYCARQLWGYYALDIWGQGTLVTVSS
VL: DIQLTQSPSSLSASVGDRVTITCSASISVSYMYWYQQKPGKAPKLLIYDMSNLASGVPSRFSGSGSGTDFTLTISSLQPEDFATYYCMQWSGYPYTFGQGTKVEIK
notes: as for B1
B16: anti-IL-6 antibody, heavy chain T63D, light chain WT (antibody, IgG1, V domains shown)
VH: EVQLVESGGGLVQPGGSLRLSCAASGFTFSPFAMSWVRQAPGKGLEWVAKISPGGSWTYYSDDVTGRFTFSLDTSKSTAYLQMNSLRAEDTAVYYCARQLWGYYALDIWGQGTLVTVSS
VL: DIQLTQSPSSLSASVGDRVTITCSASISVSYMYWYQQKPGKAPKLLIYDMSNLASGVPSRFSGSGSGTDFTLTISSLQPEDFATYYCMQWSGYPYTFGQGTKVEIK
notes: as for B1
B17: anti-IL-6 antibody, heavy chain V48Q, light chain WT (antibody, IgG1, V domains shown)
VH: EVQLVESGGGLVQPGGSLRLSCAASGFTFSPFAMSWVRQAPGKGLEWQAKISPGGSWTYYSDTVTGRFTFSLDTSKSTAYLQMNSLRAEDTAVYYCARQLWGYYALDIWGQGTLVTVSS
VL: DIQLTQSPSSLSASVGDRVTITCSASISVSYMYWYQQKPGKAPKLLIYDMSNLASGVPSRFSGSGSGTDFTLTISSLQPEDFATYYCMQWSGYPYTFGQGTKVEIK
notes: as for B1
B18: anti-IL-6 antibody, heavy chain WT, light chain S24I (antibody, IgG1, V domains shown)
VH: EVQLVESGGGLVQPGGSLRLSCAASGFTFSPFAMSWVRQAPGKGLEWVAKISPGGSWTYYSDTVTGRFTFSLDTSKSTAYLQMNSLRAEDTAVYYCARQLWGYYALDIWGQGTLVTVSS
VL: DIQLTQSPSSLSASVGDRVTITCIASISVSYMYWYQQKPGKAPKLLIYDMSNLASGVPSRFSGSGSGTDFTLTISSLQPEDFATYYCMQWSGYPYTFGQGTKVEIK
notes: as for B1
B19: anti-IL-6 antibody, heavy chain WT, light chain S24V (antibody, IgG1, V domains shown)
VH: EVQLVESGGGLVQPGGSLRLSCAASGFTFSPFAMSWVRQAPGKGLEWVAKISPGGSWTYYSDTVTGRFTFSLDTSKSTAYLQMNSLRAEDTAVYYCARQLWGYYALDIWGQGTLVTVSS
VL: DIQLTQSPSSLSASVGDRVTITCVASISVSYMYWYQQKPGKAPKLLIYDMSNLASGVPSRFSGSGSGTDFTLTISSLQPEDFATYYCMQWSGYPYTFGQGTKVEIK
notes: as for B1

These binders were tested against T1, recombinant human IL-6 (human, UniProt P05231 30-212) (assay: SPR (Biacore), supernatant IgG on Protein A, 25 C).
T1 construct: Flowed in solution over the captured antibodies
T1 sequence (P05231 30-212 limits assumed): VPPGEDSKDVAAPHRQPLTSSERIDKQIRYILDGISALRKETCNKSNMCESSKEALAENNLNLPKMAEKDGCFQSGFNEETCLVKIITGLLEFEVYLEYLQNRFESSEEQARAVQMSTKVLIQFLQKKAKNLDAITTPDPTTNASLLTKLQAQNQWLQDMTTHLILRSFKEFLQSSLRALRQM
Experimental: Antibodies were captured on a Protein A chip (GE) by injecting 1:20 dilution of cell supernatant at 10 μL/min for 60 seconds. […] The sensor chip was regenerated by a 60 seconds injection of 10 mM Glycine pH 1.7 at flow rate of 50 μL/min. […] For this setup, 1 μg/mL of purified antibody was injected over a Protein A chip at 10 μL/min for 25-28 seconds. Data analysis for supernatant and purified samples were performed using BIAevaluation software (GE). All sensorgrams were double reference subtracted and fit using a 1:1 Langmuir binding model.
A Kd of 0.39 nM, a koff of 0.000179 s⁻¹ and a kon of 460000 M⁻¹ s⁻¹ were found for B1 in this work.
A Kd of 0.36 nM, a koff of 0.000149 s⁻¹ and a kon of 415000 M⁻¹ s⁻¹ were found for B2 in this work.
A Kd of 0.388 nM, a koff of 0.000212 s⁻¹ and a kon of 546000 M⁻¹ s⁻¹ were found for B3 in this work.
A Kd of 0.402 nM, a koff of 0.000178 s⁻¹ and a kon of 444000 M⁻¹ s⁻¹ were found for B4 in this work.
A Kd of 0.281 nM, a koff of 0.000223 s⁻¹ and a kon of 793000 M⁻¹ s⁻¹ were found for B5 in this work.
A Kd of 0.0954 nM, a koff of 5.69e-05 s⁻¹ and a kon of 597000 M⁻¹ s⁻¹ were found for B6 in this work.
A Kd of 0.426 nM, a koff of 0.000152 s⁻¹ and a kon of 357000 M⁻¹ s⁻¹ were found for B7 in this work.
A Kd of 0.424 nM, a koff of 0.000132 s⁻¹ and a kon of 311000 M⁻¹ s⁻¹ were found for B8 in this work.
A Kd of 0.226 nM, a koff of 0.000181 s⁻¹ and a kon of 803000 M⁻¹ s⁻¹ were found for B9 in this work.
A Kd of 0.346 nM, a koff of 0.000159 s⁻¹ and a kon of 460000 M⁻¹ s⁻¹ were found for B10 in this work.
A Kd of 0.00551 nM, a koff of 2.67e-06 s⁻¹ and a kon of 484000 M⁻¹ s⁻¹ were found for B11 in this work.
A Kd of 0.404 nM, a koff of 0.000209 s⁻¹ and a kon of 517000 M⁻¹ s⁻¹ were found for B12 in this work.
A Kd of 0.445 nM, a koff of 0.000169 s⁻¹ and a kon of 380000 M⁻¹ s⁻¹ were found for B13 in this work.
A Kd of 0.275 nM, a koff of 0.000206 s⁻¹ and a kon of 749000 M⁻¹ s⁻¹ were found for B14 in this work.
A Kd of 0.594 nM, a koff of 0.000184 s⁻¹ and a kon of 309000 M⁻¹ s⁻¹ were found for B15 in this work.
A Kd of 0.423 nM, a koff of 0.000174 s⁻¹ and a kon of 410000 M⁻¹ s⁻¹ were found for B16 in this work.
A Kd of 0.21 nM, a koff of 0.000138 s⁻¹ and a kon of 654000 M⁻¹ s⁻¹ were found for B17 in this work.
A Kd of 0.284 nM, a koff of 0.000135 s⁻¹ and a kon of 476000 M⁻¹ s⁻¹ were found for B18 in this work.
A Kd of 0.403 nM, a koff of 0.000137 s⁻¹ and a kon of 340000 M⁻¹ s⁻¹ were found for B19 in this work.
